Data published in patent US20260250651, “CAS12 PROTEINS AND USES THEREOF” (GUANGZHOU REFORGENE MEDICINE CO., LTD., published 2026).
Changes are numbered by the printed parent chain.

T1: Cas12i-111 (N295R,N260R,G705R,L332R)
T1 chain: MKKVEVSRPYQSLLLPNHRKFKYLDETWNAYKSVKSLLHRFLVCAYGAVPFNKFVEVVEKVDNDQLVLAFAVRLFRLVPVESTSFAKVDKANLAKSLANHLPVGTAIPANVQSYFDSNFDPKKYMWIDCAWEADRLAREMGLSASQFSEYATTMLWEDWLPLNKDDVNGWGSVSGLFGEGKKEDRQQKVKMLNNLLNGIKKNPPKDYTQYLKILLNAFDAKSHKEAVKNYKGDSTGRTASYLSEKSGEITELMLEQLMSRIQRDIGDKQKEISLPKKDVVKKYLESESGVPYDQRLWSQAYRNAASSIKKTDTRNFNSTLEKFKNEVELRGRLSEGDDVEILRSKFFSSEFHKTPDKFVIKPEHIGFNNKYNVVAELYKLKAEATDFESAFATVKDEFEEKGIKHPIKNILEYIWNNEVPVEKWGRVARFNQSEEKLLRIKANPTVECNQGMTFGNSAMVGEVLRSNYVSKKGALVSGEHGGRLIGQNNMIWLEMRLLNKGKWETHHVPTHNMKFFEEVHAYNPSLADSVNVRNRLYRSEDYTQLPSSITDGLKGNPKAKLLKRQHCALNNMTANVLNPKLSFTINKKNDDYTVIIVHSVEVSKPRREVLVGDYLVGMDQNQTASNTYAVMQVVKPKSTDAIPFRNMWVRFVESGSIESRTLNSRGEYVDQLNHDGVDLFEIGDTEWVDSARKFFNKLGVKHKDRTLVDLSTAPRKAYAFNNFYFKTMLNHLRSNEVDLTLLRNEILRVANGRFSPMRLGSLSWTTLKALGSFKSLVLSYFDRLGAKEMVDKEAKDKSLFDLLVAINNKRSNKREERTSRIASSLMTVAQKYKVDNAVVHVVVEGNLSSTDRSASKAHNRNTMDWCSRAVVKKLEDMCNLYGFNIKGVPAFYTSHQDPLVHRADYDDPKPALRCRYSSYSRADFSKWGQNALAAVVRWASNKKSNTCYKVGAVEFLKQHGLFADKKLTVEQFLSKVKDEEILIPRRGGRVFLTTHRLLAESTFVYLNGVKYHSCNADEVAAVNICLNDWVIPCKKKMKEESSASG

T2: Cas12i-133 (N295R,N260R,G705R,Q971E)
T2 chain: T1 chain with R332L, Q971E

B1: gRNA-HBG ; HBG target (ssRNA ; dsDNA)
RNA: AGAGAAUGUGUGCAUAGUCACACACAAGGCAAACUUGACCAAU
DNA 1: ACAAGGCAAACTTGACCAAT
DNA 2: ATTGGTCAAGTTTGCCTTGT
B2: gRNA-HBB ; HBB target (ssRNA ; dsDNA)
RNA: AGAGAAUGUGUGCAUAGUCACACUAUGCAGAAAUAUUGCUAUUGCCU
DNA 1: TATGCAGAAATATTGCTATTGCCT
DNA 2: AGGCAATAGCAATATTTCTGCATA
B3: gRNA-TTR ; TTR target (ssRNA ; dsDNA)
RNA: AGAGAAUGUGUGCAUAGUCACACCAGUAAGAUUUGGUGUCUAU
DNA 1: CAGTAAGATTTGGTGTCTAT
DNA 2: ATAGACACCAAATCTTACTG

Tests used:
[1] = molecular target: T1, Cas12i-111; assay: cell_activity; 293T indels
Description: (§1) Plating: The 293T cell line was plated when the confluence reached 70-80%, and the number of cells seeded in a 24-well plate was 5*10\hat{ }5 cells/well.
(§2) Transfection: After 12-14 hours of plating, transfection was performed. 100 μl of Opti-MEM, 1.5 μl of PEI (Yisheng Bio, Polyethylenimine Linear (PEI) MW25000), 250 ng of the mutant clone plasmid from Example 2, and 250 ng of gRNA plasmid for targeting endogenous genes were added to each well of a 24-well plate. The mixture was incubated at room temperature for 20 minutes and then added to 293T cells for transfection. After transfection overnight, the medium was replaced with fresh medium and cultured for the next period.
(§3) DNA extraction, PCR amplification, and Sanger sequencing: After culturing for 72 hours, cells were washed with PBS, and then 100 μl of cell lysis buffer (Viagen, DirectPCR® Lysis Reagent (Cell)) was added for lysis to obtain a lysate containing genomic DNA. The genomic DNA was amplified in the region near the target sequence, and the PCR product was sent to a sequencing company for Sanger sequencing.

[2] = molecular target: T2, Cas12i-133; assay: cell_activity; 293T indels
Description: as §1, §2, §3

Binder | relative indel editing efficiency [1] | relative indel editing efficiency [2]
B1 | 1.53 fold of wild type | 1.57 fold of wild type
B2 | 1.01 fold of Cas12i-69 | 0.78 fold of Cas12i-69
B3 | 3.91 fold of wild type | 4.95 fold of wild type
